Data published in article PMC5748983.

Target: GST-DENN-4 (C. elegans)
Test: pull-down

fold increase of pull-down with HA-LET-413 added, against without: 3 fold
B1: HA-RAB-10(T23N) (natural protein)
chain: MARRPYDMLFKLLLIGDSGVGKNCILYRFSDDAFNTTFISTIGIDFKIKTIELKGKKIKLQIWDTAGQERFHTITTSYYRGAMGIMLVYDITNAKSFDNIAKWLRNIDEHASEDVVKMILGNKCDMSDRRVVSRERGEKIAQDHGISFHETSAKLNVHVDTAFYDLAEAILAKMPDSTDEQSRDTVNPVQPQRQSSSGGCC
